Entries after “also recorded” stand apart in the source; their conditions may differ. Where no end group is shown, it is not given here.
Assays:
Streptavidin [1] = target: T1, Streptavidin (Streptomyces avidinii, UniProt P22629); assay: Recombinant peptide chip screen with HRP- or Europium-labeled Streptavidin; format: binding; conditions: for effect of dimerisation on chip signal/affinity: 12 glycine linker spaced dimer versus monomer, HRP-Streptavidin signal
T1 construct: purchased ForteBio
Procedure: Competent E. coli One Shot® BL21 Star™ (DE3) cells (Thermo Fisher Scientific) carrying the gene for T7 RNA polymerase under control of isopropyl β-D-1-thiogalactopyranoside (IPTG)-inducible lacUV5 promotor were transformed with respective expression libraries, and plated onto large square Q-trays. Individual colonies were robotically picked (QPix2^xt, Genetix) into suitable 384 well plates containing liquid LB medium supplemented with 100 μg/ml ampicillin, and cultivated overnight at 37 °C. Alternative route was to directly split appropriately diluted (as confirmed by plating onto LB-amp agar plates) transformation reactions (after 1 h recovery in antibiotics-free SOC medium) into 384 well plates via a programmable Flexdrop Precision Reagent Dispenser (Perkin Elmer). The next day, clones were robotically arrayed onto a 0.45 μm pore size PROTRAN™ nitrocellulose sheet (Whatman) cut in the form of the original masterplate, applying a 1 × 1, 5 × 1, 5 × 5, or 10 × 10 pattern (such that each clone or pool is gridded in 1, 5 or 25 or 100 replicates each). Following a 6 to 8 h incubation interval on top of solid LB at 30 °C, peptide expression was achieved by transferring these membrane-imprinted clones onto LB agar plates supplemented with 1 mM IPTG, followed by a 2 h incubation interval at 37 °C. Cells were then directly lysed via transfer into a Tris-buffered saline (TBS) solution containing 0.05% Tween-20 and 3% blotting-grade milk powder. Membranes were in refined dot-blot reminiscent procedure challenged with (horseradish peroxidase) HRP- or Europium labeled Streptavidin (in 1:1000 to 1:5000 dilution in TBS-0.05% Tween) for 1 h at RT, washed 3 times in TBS-0.05% Tween, and scanned with either a ChemiDoc imaging system (Quantity One® analysis software, BioRad) after exposure to Immobilon™ Western chemiluminescent substrate (Millipore, Merck), or directly with a prototypic SpectraMax® Paradigm® multi-mode detection Platform (ScanLater™ Western Blot Detection Cartridge, Molecular Devices).
Screening parameters were first of all optimized: signal-to-background ratios and realizable detection limits were assessed by analyzing the associations between published Strep-tagI and II peptides (as well as 12G linker spaced dimer derived thereof) and either commercially available HRP- or fluorescence labeled Streptavidin. […] We next further optimized E. coli growth times (from 0 to 24 h at 2 different temperatures), induction intervals, critical cell densities required, printing conditions, lysis and detection conditions, etc. (Fig. 2).

Streptavidin [2] = target: T1, Streptavidin; parameters: method as in 4 sources, one per row (each row's own in cited_ref): ref see discussion section ([26], [33], [34]) ||| ref [35], [36] = [35]; PMID 26406477; doi:10.1371/journal.pone.0139137; 35. Fogen D Engineering Streptavidin and a Streptavidin-Binding Peptide with Infinite Binding Affinity and Reversible Binding Capability: Purification of a Tagged Recombinant Protein to High Purity vi || [36]; PMID 11722181; doi:10.1006/prep.2001.1515; 36. Keefe AD One-step purification of recombinant proteins using a nanomolar-affinity streptavidin-binding peptide, the SBP-Tag Protein Expr Purif 2001 23 3 440 446 10.1006/prep.2001.1515 11722181 ||| ref [37] = [37]; PMID 14680960; doi:10.1016/j.pep.2003.08.014; 37. Lamla T Erdmann VA The Nano-tag, a streptavidin-binding peptide for the purification and detection of recombinant proteins Protein Expr Purif 2004 33 1 39 47 10.1016/j.pep.2003.08.014 14680960 ||| ref [26], [33], [34] = [26]; PMID 8636976; doi:10.1006/jmbi.1996.0061; 26. Schmidt TG Molecular interaction between the Strep-tag affinity peptide and its cognate target, streptavidin J Mol Biol 1996 255 5 753 766 10.1006/jmbi.1996.0061 8636976 || [33]; PMID 10796988; doi:10.1016/S1050-3862(99)00033-9; 33. Skerra A Schmidt TG Applications of a peptide ligand for streptavidin: the Strep-tag Biomol Eng 1999 16 1–4 79 86 10.1016/S1050-3862(99)00033-9 10796988 || [34]; PMID 11910031; doi:10.1110/ps.4150102; 34. Korndorfer IP Skerra A Improved affinity of engineered streptavidin for the Strep-tag II peptide is due to a fixed open conformation of the lid-like loop at the binding site Protein Sci 2002 11 4; conditions: equilibrium dissociation constant; ref [35], [36]; read-out: literature KD of SBP-tag, Streptavidin; cited from earlier work

T1 sequence (P22629 25-183): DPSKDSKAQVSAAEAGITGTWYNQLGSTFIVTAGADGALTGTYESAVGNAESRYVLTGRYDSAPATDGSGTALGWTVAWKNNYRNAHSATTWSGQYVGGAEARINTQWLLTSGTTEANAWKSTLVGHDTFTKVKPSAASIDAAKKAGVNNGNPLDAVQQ

Row | Substance | effect of dimerisation on chip signal/affinity (Streptavidin [1]) | binder strength on test peptide chip (Streptavidin [1]; in comparison to negative control, HRP- or fluorescence-labeled Streptavidin) | Kd (Streptavidin [2]) [nM]
1 | B5 dimer: B5 dimerized, spaced by an analogous 12 glycine linker (VSHPQAPFGGGGGGGGGGGGVSHPQAPF; not fully specified) | could not increase affinity by linear dimerization |  | 
2 | Dim12G: 12 glycine (G) linker spaced dimer resembling a published Twin-conformation; fusion of Strep-tagI and Strep-tagII monomers [reference compound] | performs superior in comparison to a single monomer | higher affinity | 
3 | F14.5 dimer: 12G–spaced dimeric F14.5 (CSGSYGSCGGGGGGGGGGGGCSGSYGSC; cysteine pairing not given here; also: fused to GST, end not given here) | remained fairly constant; also recorded: could not increase affinity by linear dimerization |  | 
4 | SBP-tag: 38 AA encompassing SBP-tag |  |  | 2.5
